Data published in article PMC5056442.

Target: BamE (E. coli) (UniProt P0A937)
Assay: SEC + native MS; purified BamABCDE; SDS-PAGE, gel filtration (Superdex200 10/300 GL, TBS with 0.05% DDM, 21 °C) and non-covalent nanoESI-MS named together for the molar ratio

Sequence of UniProt P0A937 (P0A937 20-113): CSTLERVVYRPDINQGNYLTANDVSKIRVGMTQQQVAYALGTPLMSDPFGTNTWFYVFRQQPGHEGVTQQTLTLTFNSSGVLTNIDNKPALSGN

For “BamB (from UniProt P77774 20-392) (natural protein)”, which stoichiometry N is on record?
The stoichiometry N was 1 molar ratio.
